In patent publication US20260265385A1 (ANAPTYSBIO, published 2026) one finds Kd data, which are given here for 17 molecules.

In assay [1] the target is T1, recombinant human IL-2Rβ (extracellular domain, Ala1-Thr215) (human, UniProt P14784 27-240).
T1 construct: extracellular domain; Analyte in SPR; Ala1-Thr215 is counted on the mature protein; also called human LL-2Rβ; Human IL-2RB
T1 sequence (looked up): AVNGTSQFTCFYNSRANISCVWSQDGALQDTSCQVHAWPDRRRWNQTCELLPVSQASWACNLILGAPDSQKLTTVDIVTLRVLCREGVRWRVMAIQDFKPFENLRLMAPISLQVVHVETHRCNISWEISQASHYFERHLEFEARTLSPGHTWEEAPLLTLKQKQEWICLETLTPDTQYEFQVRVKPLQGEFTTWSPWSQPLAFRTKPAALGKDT
The experiment in a line: SPR, antibody captured on Protein A chip. How it is done: (§1) Surface plasmon resonance (SPR) was used to determine the binding affinities. The M6-1625 and M10-1275 antibodies were captured onto a Cytiva Protein A Chip for 60 seconds at 0.5 μg/mL for 60 seconds. The antibodies were exposed to recombinant human LL-2Rβ or cynomolgus LL-2Rβ (corresponding to residues Ala1-Thr215 of the extracellular domains excluding the signal peptide) at typical concentrations ranging from 0.4 nM to 11 nM with typical 300 second associations and 1200 second dissociations using a BiacoreS200 instrument. Sensorgrams were fit globally using a 1:1 binding model in the Biacore T200 Evaluation Software to calculate on- and off-rates and KD values.

Assay [2] addresses T2, recombinant cynomolgus IL-2Rβ (extracellular domain, Ala1-Thr215) (cynomolgus, UniProt Q38J85 27-240).
T2 construct: extracellular domain; Analyte in SPR; also called cynomolgus LL-2Rβ; Cyno IL-2RB
T2 sequence (looked up): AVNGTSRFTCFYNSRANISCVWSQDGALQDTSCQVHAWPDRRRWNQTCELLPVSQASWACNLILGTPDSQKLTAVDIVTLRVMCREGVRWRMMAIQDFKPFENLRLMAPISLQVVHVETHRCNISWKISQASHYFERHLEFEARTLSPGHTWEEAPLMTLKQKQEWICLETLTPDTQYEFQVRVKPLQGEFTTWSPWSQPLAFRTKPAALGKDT
The assay is described as follows: SPR, antibody captured on Protein A chip. The method, then:
as §1

B1: APE14946 (antibody, V domains shown)
VH: QVQLVQSGAEVKKPGASVKVSCKASGYTFSRYWIEWVRQAPGQGLEWMGEILPGSGSINHNEKFQGRVTFTADTSTSTVYMELSSLRSEDTAVYFCTRHYGSFDYWGQGTTVTVSS
VL: DIQMTQSPSSLSASVGDRVTITCKASQNVGTDVAWYQQKPGKAPKSLIYSASYRYSGVPSRFSGSGSGTDFTLTISSLQPEDFATYFCHQYSSYPFTFGQGTKLEIKR
notes: M6-p1625 series
Broadly, the Kd is the equilibrium constant for the complex coming apart. Regarding B1, the Kd in assay [1] is 0.357 nM; in assay [2] it was 0.255 nM.

B2: APE14950 (antibody, V domains shown)
VH: QVQLVQSGAEVKKPGASVKVSCKASGYTFSRYWIEWVRQAPGQGLEWMGEILPGSGSINHNEKFQGRVTMTRDTSTSTVYMELSSLRSEDTAVYYCTRHYGSFDYWGQGTTVTVSS
VL: DIQMTQSPSSLSASVGDRVTITCKASQNVGTDVAWYQQKPGKAPKSLIYSASYRYSGVPSRFSGSGSGTDFTLTISSLQPEDFATYFCHQYSSYPFTFGQGTKLEIKR
notes: M6-p1625 series
Regarding B2, the values for the equilibrium dissociation constant (Kd) in assay [1] and in assay [2] were 0.252 nM and 0.192 nM, respectively.

B3: APE15278 (antibody, V domains shown)
VH: QVQLVQSGAEVKKPGASVKVSCKASGYTFSRYWIEWVRQAPGQGLEWMGEISPGVDTINHNEKFQGRVTMTRDTSTSTVYMELSSLRSEDTAVYYCTRHYGSFDYWGQGTTVTVSS
VL: DIQMTQSPSSLSASVGDRVTITCKASQNVGTDVAWYQQKPGKAPKSLIYSASYRYSGVPSRFSGSGSGTDFTLTISSLQPEDFATYFCHQYESYPFTFGQGTKLEIKR
notes: M6-p1625 series
For B3, the Kd amounted to 0.334 nM in assay [1] and 0.488 nM in assay [2].

B4: APE15089 (antibody, V domains shown)
VH: QVQLVQSGAEVKKPGASVKVSCKASGYTFSRYWIEWVRQAPGQGLEWMGEILPGSGSINHNEKFQGRVTMTRDTSTSTVYMELSSLRSEDTAVYYCTRHYGSFDYWGQGTTVTVSS
VL: DIQMTQSPSSLSASVGDRVTITCKASQNVDTDVAWYQQKPGKAPKSLIYSASYRYSGVPSRFSGSGSGTDFTLTISSLQPEDFATYFCHQYSSYPFTFGQGTKLEIKR
notes: M6-p1625 series
Consider B4, for which the Kd in assay [1] amounted to 1.04 nM; in assay [2] it was 9.39 nM.

B5: APE15088 (antibody, V domains shown)
VH: QVQLVQSGAEVKKPGASVKVSCKASGYTFSRYWIEWVRQAPGQGLEWMGEILPGSGSINHNEKFQGRVTMTRDTSTSTVYMELSSLRSEDTAVYYCTRHYGSFDYWGQGTTVTVSS
VL: DIQMTQSPSSLSASVGDRVTITCKASQNVGTNVAWYQQKPGKAPKSLIYSASYRYSGVPSRFSGSGSGTDFTLTISSLQPEDFATYFCHQYSSYPFTFGQGTKLEIKR
notes: M6-p1625 series
On to B5, for which the Kd in assay [1] was 16.4 nM; in assay [2], 16.7 nM.

B6: APE15087 (antibody, V domains shown)
VH: QVQLVQSGAEVKKPGASVKVSCKASGYTFSRYWIEWVRQAPGQGLEWMGEILPGSGSINHNEKFQGRVTMTRDTSTSTVYMELSSLRSEDTAVYYCTRHYGSFDYWGQGTTVTVSS
VL: DIQMTQSPSSLSASVGDRVTITCKASQNVGTEVAWYQQKPGKAPKSLIYSASYRYSGVPSRFSGSGSGTDFTLTISSLQPEDFATYFCHQYSSYPFTFGQGTKLEIKR
notes: M6-p1625 series
On to B6, for which the Kd was determined as 4.31 nM in assay [1] and 3.56 nM in assay [2].

B7: APE15090 (antibody, V domains shown)
VH: QVQLVQSGAEVKKPGASVKVSCKASGYTFSRYWIEWVRQAPGQGLEWMGEILPGSGSIDHNEKFQGRVTMTRDTSTSTVYMELSSLRSEDTAVYYCTRHYGSFDYWGQGTTVTVSS
VL: DIQMTQSPSSLSASVGDRVTITCKASQNVGTDVAWYQQKPGKAPKSLIYSASYRYSGVPSRFSGSGSGTDFTLTISSLQPEDFATYFCHQYSSYPFTFGQGTKLEIKR
notes: M6-p1625 series
Take B7: the results for the Kd in assay [1] and in assay [2] were 0.657 nM and 0.44 nM, respectively.

B8: APE15085 (antibody, V domains shown)
VH: QVQLVQSGAEVKKPGASVKVSCKASGYTFSRYWIEWVRQAPGQGLEWMGEILPGSGSINHNEKFQGRVTMTRDTSTSTVYMELSSLRSEDTAVYYCTRHYGSFDYWGQGTTVTVSS
VL: DIQMTQSPSSLSASVGDRVTITCKASQNVGTDVAWYQQKPGKAPKSLIYSASYRYSGVPSRFSGSGSGTDFTLTISSLQPEDFATYFCHQYESYPFTFGQGTKLEIKR
notes: M6-p1625 series
Turning to B8, the Kd came to 0.158 nM in assay [1] and 0.154 nM in assay [2].

B9: APE14949 (antibody, V domains shown)
VH: QVQLVQSGAEVKKPGASVKVSCKASGYTFSRYWIEWVRQAPGQGLEWMGEILPGSGSINHNEKFQGRVTFTADTSTSTVYMELSSLRSEDTAVYYCTRHYGSFDYWGQGTTVTVSS
VL: DIQMTQSPSSLSASVGDRVTITCKASQNVGTDVAWFQQKPGKAPKSLIYSASYRYNGVPSRFSGSGSGTDFTLTISSLQPEDFATYYCHQYSSYPFTFGQGTKLEIKR
notes: M6-p1625 series
For B9, the Kd in assay [1] came out at 1.5 nM; in assay [2] it was 1 nM.

B10: APE14948 (antibody, V domains shown)
VH: QVQLVQSGAEVKKPGASVKVSCKASGYTFSRYWIEWVRQAPGQGLEWMGEILPGSGSINHNEKFQGRVTFTADTSTSTVYMELSSLRSEDTAVYYCTRHYGSFDYWGQGTTVTVSS
VL: DIQMTQSPSSLSASVGDRVTITCKASQNVGTDVAWYQQKPGKAPKSLIYSASYRYSGVPSRFSGSGSGTDFTLTISSLQPEDFATYFCHQYSSYPFTFGQGTKLEIKR
notes: M6-p1625 series
For the molecule B10, the Kd was determined as 0.358 nM in assay [1] and 0.266 nM in assay [2].

B11: APE15091 (antibody, V domains shown)
VH: QVQLVQSGAEVKKPGASVKVSCKASGYTFSRYWINWVRQAPGQGLEWMGEILPGSGSINHNEKFQGRVTMTRDTSTSTVYMELSSLRSEDTAVYYCTRHYGSFDYWGQGTTVTVSS
VL: DIQMTQSPSSLSASVGDRVTITCKASQNVGTDVAWYQQKPGKAPKSLIYSASYRYSGVPSRFSGSGSGTDFTLTISSLQPEDFATYFCHQYSSYPFTFGQGTKLEIKR
notes: M6-p1625 series
For B11, the Kd in assay [2] was determined as 0.345 nM.

B12: APE14947 (antibody, V domains shown)
VH: QVQLVQSGAEVKKPGASVKVSCKASGYTFSRYWIEWVRQAPGQGLEWMGEILPGSGSINHNEKFQGRVTFTADTSTSTVYMELSSLRSEDTAVYFCTRHYGSFDYWGQGTTVTVSS
VL: DIQMTQSPSSLSASVGDRVTITCKASQNVGTDVAWFQQKPGKAPKSLIYSASYRYNGVPSRFSGSGSGTDFTLTISSLQPEDFATYYCHQYSSYPFTFGQGTKLEIKR
notes: M6-p1625 series
For B12, the Kd is 1.46 nM in assay [1] and 0.977 nM in assay [2].

B13: APE15093 (antibody, V domains shown)
VH: QVQLVQSGAEVKKPGASVKVSCKASGYTFTRYWIEWVRQAPGQGLEWMGEILPGSGSINHNEKFQGRVTMTRDTSTSTVYMELSSLRSEDTAVYYCTRHYGSFDYWGQGTTVTVSS
VL: DIQMTQSPSSLSASVGDRVTITCKASQNVGTDVAWYQQKPGKAPKSLIYSASYRYSGVPSRFSGSGSGTDFTLTISSLQPEDFATYFCHQYSSYPFTFGQGTKLEIKR
notes: M6-p1625 series
With B13, the Kd in assay [2] stood at 0.189 nM.

B14: APE14951 (antibody, V domains shown)
VH: QVQLVQSGAEVKKPGASVKVSCKASGYTFSRYWIEWVRQAPGQGLEWMGEILPGSGSINHNEKFQGRVTMTRDTSTSTVYMELSSLRSEDTAVYYCTRHYGSFDYWGQGTTVTVSS
VL: DIQMTQSPSSLSASVGDRVTITCKASQNVGTDVAWFQQKPGKAPKSLIYSASYRYNGVPSRFSGSGSGTDFTLTISSLQPEDFATYYCHQYSSYPFTFGQGTKLEIKR
notes: M6-p1625 series
For B14, the results for the Kd in assay [1] and in assay [2] were 0.804 nM and 0.584 nM, respectively.

B15: APE15086 (antibody, V domains shown)
VH: QVQLVQSGAEVKKPGASVKVSCKASGYTFSRYWIEWVRQAPGQGLEWMGEILPGSGSINHNEKFQGRVTMTRDTSTSTVYMELSSLRSEDTAVYYCTRHYGSFDYWGQGTTVTVSS
VL: DIQMTQSPSSLSASVGDRVTITCKASQNVGTDVAWYQQKPGKAPKSLIYSASYRYSGVPSRFSGSGSGTDFTLTISSLQPEDFATYFCQQYSSYPFTFGQGTKLEIKR
notes: M6-p1625 series
Consider B15, for which the dissociation constant Kd is 0.305 nM in assay [1] and 0.25 nM in assay [2].

B16: APE15277 (antibody, V domains shown)
VH: QVQLVQSGAEVKKPGASVKVSCKASGYTFISYWIQWVRQAPGQGLEWMGEILPGSGSINHNEKFQGRVTMTRDTSTSTVYMELSSLRSEDTAVYYCTRHYGSFDYWGQGTTVTVSS
VL: DIQMTQSPSSLSASVGDRVTITCKASQNVGTDVAWYQQKPGKAPKSLIYSASYRYSGVPSRFSGSGSGTDFTLTISSLQPEDFATYFCHQYESYPFTFGQGTKLEIKR
notes: M6-p1625 series
With B16, the results for the Kd in assay [1] and in assay [2] were 0.229 nM and 0.244 nM, respectively.

B17: APE15092 (antibody, V domains shown)
VH: QVQLVQSGAEVKKPGASVKVSCKASGYTFSRYWIQWVRQAPGQGLEWMGEILPGSGSINHNEKFQGRVTMTRDTSTSTVYMELSSLRSEDTAVYYCTRHYGSFDYWGQGTTVTVSS
VL: DIQMTQSPSSLSASVGDRVTITCKASQNVGTDVAWYQQKPGKAPKSLIYSASYRYSGVPSRFSGSGSGTDFTLTISSLQPEDFATYFCHQYSSYPFTFGQGTKLEIKR
notes: M6-p1625 series
As for B17, in assay [2], the Kd turned out to be 0.126 nM.
